According to patent US20180282372:

T1: Aktide biosensor RRRRRSVDSHGGKbiotinGG (SEQ ID NO:11)
T1 sequence: RRRRRSVDSHGGKGG

T2: candidate biosensor peptide substrate WHLQTWCGYGGKbiotinGG (SEQ ID NO:12)
T2 chain: WHLQTWCGYGGKGG


How the values were obtained:
[1] = tested on: T1, Aktide biosensor RRRRRSVDSHGGKbiotinGG (SEQ ID NO:11)
[2] = target: T2, candidate biosensor peptide substrate …
[3] = target: the other five peptides (of six candidate biosensors peptides screened with LKB1)

Row | Molecule | phosphorylation of the peptide in a time-course in vitro kinase assay (MALDI/TOF/TOF-MS; 0, 30, 60, 120 min) [1] | phosphorylation of the peptide in an in vitro kinase assay (MALDI/TOF/TOF-MS) [1] | phosphorylation of the peptide in an in vitro kinase assay (LC ESI-MS) [2] | phosphorylation of the peptide in an in vitro kinase assay screen with LKB1 [3]
1 | Akt serine/threonine kinase (protein kinase B) | Nearly complete conversion to phosphorylated product was observed after 2 hr. | this peptide sequence is able to be efficiently phosphorylated by Akt over a 2 hr kinase assay |  | 
2 | LKB1 serine/threonine kinase (Liver Kinase B1) (protein) MEVVDPQQLGMFTEGELMSVGMDTFIHRIDSTEVIYQPRRKRAKLIGKYLMGDLLGEGSYGKVKEVLDSETLCRRAVKILKKKKLRRIPNGEANVKKEIQLLRRLRHKNVIQLVDVLYNEEKQKMYMVMEYCVCGMQEMLDSVPEKRFPVCQAHGYFCQLIDGLEYLHSQGIVHKDIKPGNLLLTTGGTLKISDLGVAEALHPFAADDTCRTSQGSPAFQPPEIANGLDTFSGFKVDIWSAGVTLYNITTGLYPFEGDNIYKLFENIGKGSYAIPGDCGPPLSDLLKGMLEYEPAKRFSIRQIRQHSWFRKKHPPAEAPVPIPPSPDTKDRWRSMTVVPYLEDLHGADEDEDLFDIEDDIIYTQDFTVPGQVPEEEASHNGQRRGLPKAVCMNGTEAAQLSTKSRAEGRAPNPARKACSASSKIRRLSACKQQ |  |  | this initial peptide sequence is able to be partially phosphorylated by LKB1 after a 3 hr reaction | Out of these six, one sequence, WHLQTWCGYGGKbiotinGG (SEQ ID NO:12), was shown to be partially phosphorylated by LKB1 after a 3 hr reaction.
